Test results published in publication PMC11169542, “A probe for NIR-II imaging and multimodal analysis of early Alzheimer’s disease by targeting CTGF” (Nature Communications, 2024).
Ends that are not written are not given here.

Experiments:
SH-SY5Y cells = assay: Cytotoxicity of DGC (CCK-8); format: cell-based; design: key to Cell viability: viability relative to control cells (control = 1); conditions: for Cell viability: 24 h, CCK-8, normalized to control
Protocol: U87MG, SH-SY5Y, and CTX TNA2 cells were seeded into 96-well plates at a density of 5 × 10^3 cells per well and were incubated at 37 °C for 24 h. […] Next, 10 µL of a colorimetric Cell Counting Kit (CCK-8) reagent diluted with 100 µL medium was added to each well, and incubated for 30 min, The absorbance at 450 nm was measured using a microplate reader (Molecular Devices, San Jose, CA, USA). The relative viability was normalized to control cells. The experiment was performed in triplicates.

CTX TNA2 cells = assay: Cytotoxicity of DGC (CCK-8); format: cell-based; design: key to Cell viability: viability relative to control cells (control = 1); conditions: for Cell viability: 24 h, CCK-8, normalized to control
Protocol: U87MG, SH-SY5Y, and CTX TNA2 cells were seeded into 96-well plates at a density of 5 × 10^3 cells per well and were incubated at 37 °C for 24 h. Then, the cells were treated with 5, 10, 20, 50, 100, and 500 µM DGC for 24 h. Next, 10 µL of a colorimetric Cell Counting Kit (CCK-8) reagent diluted with 100 µL medium was added to each well, and incubated for 30 min, The absorbance at 450 nm was measured using a microplate reader (Molecular Devices, San Jose, CA, USA). The relative viability was normalized to control cells. The experiment was performed in triplicates.

CTGF = target: T1, CTGF (Mus musculus, UniProt P29268); assay: ICP-MS of Au content in DGC-labelled mouse brain sections; design: species or system APP/PS1 and wild-type C57BL/6J mice
T1 construct: brain sections of the age-matched wild-type C57BL/6J mice were used as controls; from tissue; host or cells: brain of APP/PS1 transgenic and wild-type C57BL/6J mice (sections, living animal, perfused isolated brain)
T1 sequence (P29268 26-348): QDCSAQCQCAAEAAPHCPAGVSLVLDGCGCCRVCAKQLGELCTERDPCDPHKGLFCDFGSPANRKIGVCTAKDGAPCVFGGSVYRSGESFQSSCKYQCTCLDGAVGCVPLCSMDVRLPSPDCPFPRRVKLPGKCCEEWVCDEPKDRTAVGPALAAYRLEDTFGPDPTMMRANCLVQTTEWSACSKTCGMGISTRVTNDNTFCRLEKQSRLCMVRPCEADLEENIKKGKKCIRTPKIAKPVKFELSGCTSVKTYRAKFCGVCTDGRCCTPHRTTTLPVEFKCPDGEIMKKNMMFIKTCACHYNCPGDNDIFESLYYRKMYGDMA
Protocol: The DGC in the brain section was measured by ICP-MS. Briefly, the brain sections were digested with 5 mL mix solution (HNO3 and H2O2 = 3:1) overnight. Then, each section was digested at a mild boiling temperature until the solution was evaporated to 0.1–0.2 mL and added 5 mL aqua regia (HCl: HNO3 = 3:1) overnight. Then each section was digested at a mild boiling temperature until the solution was evaporated to 0.1– 0.2 mL and diluted by 2% HNO3 and 1% HCl to the final volume.

[1] = ICP-MS of Au in whole brains of DGC-injected mice; format: in vivo, APP/PS1 and WT mice; conditions: DGC-injected 3-month-old APP/PS1 mice vs WT, n = 3
Protocol: SH-SY5Y cell, maybe resulting in a similar perception of fluorescence intensity.
Reviewer 1: The ICP-MS of the whole brains from DGC-treated normal or APP/PS1 mice should be quantified, not only brain sections.
NIR-II imaging in Fig. 4 were frozen grinded and digested, and the content of Au in the whole brain was measured by ICP-MS. […]
which was consistent with the results of the NIR -II imaging.
Figure R7. The Au content in brains of DGC -injected 3-month-old APP/PS1 mice and the age- […]
hippo? Is there any experiment or literature to support the content of CTGF at different positions in different periods?
Response: According to previous reports, the expression pattern of CTGF was slightly different in several AD mouse models. The homing of DAG peptide was mainly seen in the cortex of the Tg2576 mice and in the hippocampus of the hAPP-J20 mice (Nat.
Commun. 2017, 8, 1403). A marked increase of CTGF levels in the brains of APP/PS1 transgenic mice were also observed, and is mainly located in the cortical (Mol.
(1 picture or pasted object on this page, not shown here)

[2] = 10 μM (Au content), replicate 1
[3] = 10 μM (Au content), replicate 2
[4] = 10 μM (Au content), replicate 3
[5] = 20 μM (Au content), replicate 1
[6] = 20 μM (Au content), replicate 2
[7] = 20 μM (Au content), replicate 3
[8] = 50 μM (Au content), replicate 1
[9] = 50 μM (Au content), replicate 2
[10] = 50 μM (Au content), replicate 3
[11] = 100 μM (Au content), replicate 1
[12] = 100 μM (Au content), replicate 2
[13] = 100 μM (Au content), replicate 3
[14] = 500 μM (Au content), replicate 1
[15] = 500 μM (Au content), replicate 2
[16] = 500 μM (Au content), replicate 3

## DGC: CTGF-targeting peptide-coated gold nanocluster: one Au26 gold nanocluster coated by eight DAG cyclic peptides, NIR-II and red fluorescence (CDAGRKQKC; also: cyclic peptide, ring not given here, eight peptides on one Au26 nanocluster via Cys Au-S bonds)
SH-SY5Y cells; 5 μM (Au content), replicate 1
  Cell viability: 1.078
SH-SY5Y cells; 5 μM (Au content), replicate 2
  Cell viability: 1.039
SH-SY5Y cells; 5 μM (Au content), replicate 3
  Cell viability: 1.074
SH-SY5Y cells; [2]
  Cell viability: 0.9372
SH-SY5Y cells; [3]
  Cell viability: 1.045
SH-SY5Y cells; [4]
  Cell viability: 1.038
SH-SY5Y cells; [5]
  Cell viability: 1.029
SH-SY5Y cells; [6]
  Cell viability: 1.021
SH-SY5Y cells; [7]
  Cell viability: 1.039
SH-SY5Y cells; [8]
  Cell viability: 1.012
SH-SY5Y cells; [9]
  Cell viability: 1.009
SH-SY5Y cells; [10]
  Cell viability: 1.025
SH-SY5Y cells; [11]
  Cell viability: 0.9429
SH-SY5Y cells; [12]
  Cell viability: 0.9751
SH-SY5Y cells; [13]
  Cell viability: 1.036
SH-SY5Y cells; 200 μM (Au content), replicate 1
  Cell viability: 0.977
SH-SY5Y cells; 200 μM (Au content), replicate 2
  Cell viability: 1.039
SH-SY5Y cells; 200 μM (Au content), replicate 3
  Cell viability: 0.9912
SH-SY5Y cells; [14]
  Cell viability: 0.9817
SH-SY5Y cells; [15]
  Cell viability: 0.9959
SH-SY5Y cells; [16]
  Cell viability: 1.057
SH-SY5Y cells; DGC incubation 24 h, CCK-8
  cytotoxicity: did not cause any obvious cytotoxicity
CTX TNA2 cells; 5 μM (Au content), replicate 1
  Cell viability: 1.236
CTX TNA2 cells; 5 μM (Au content), replicate 2
  Cell viability: 1.185
CTX TNA2 cells; 5 μM (Au content), replicate 3
  Cell viability: 1.252
CTX TNA2 cells; [2]
  Cell viability: 1.248
CTX TNA2 cells; [3]
  Cell viability: 1.23
CTX TNA2 cells; [4]
  Cell viability: 1.328
CTX TNA2 cells; [5]
  Cell viability: 1.233
CTX TNA2 cells; [6]
  Cell viability: 1.3
CTX TNA2 cells; [7]
  Cell viability: 1.347
CTX TNA2 cells; [8]
  Cell viability: 1.269
CTX TNA2 cells; [9]
  Cell viability: 1.237
CTX TNA2 cells; [10]
  Cell viability: 1.251
CTX TNA2 cells; [11]
  Cell viability: 1.349
CTX TNA2 cells; [12]
  Cell viability: 1.363
CTX TNA2 cells; [13]
  Cell viability: 1.443
CTX TNA2 cells; [14]
  Cell viability: 1.758
CTX TNA2 cells; [15]
  Cell viability: 1.646
CTX TNA2 cells; [16]
  Cell viability: 1.62
CTX TNA2 cells; DGC incubation 24 h, CCK-8
  cytotoxicity: did not cause any obvious cytotoxicity
CTGF; 3-month-old APP/PS1 mouse brain section incubated with DGC, section 1
  ICP-MS Au content per section: 36.3
CTGF; 3-month-old APP/PS1 mouse brain section incubated with DGC, section 2
  ICP-MS Au content per section: 50.92
CTGF; 3-month-old APP/PS1 mouse brain section incubated with DGC, section 3
  ICP-MS Au content per section: 74.61
CTGF; 9-month-old APP/PS1 mouse brain section incubated with DGC, section 1
  ICP-MS Au content per section: 87.62
CTGF; 9-month-old APP/PS1 mouse brain section incubated with DGC, section 2
  ICP-MS Au content per section: 82.72
CTGF; 9-month-old APP/PS1 mouse brain section incubated with DGC, section 3
  ICP-MS Au content per section: 97.01
CTGF; WT mouse brain section incubated with DGC, section 1
  ICP-MS Au content per section: 11.2
CTGF; WT mouse brain section incubated with DGC, section 2
  ICP-MS Au content per section: 23.11
CTGF; WT mouse brain section incubated with DGC, section 3
  ICP-MS Au content per section: 12.01
[1]
  Au content in whole brain, APP/PS1 vs age-matched WT: more than twice
